Reference: patent US20260275311, “CRISPR NUCLEASE POLYPEPTIDES AND GENE EDITING SYSTEMS COMPRISING SUCH” (ARBOR BIOTECHNOLOGIES, INC., published 2026)

System: T1, Nuclease M N371R N371R
T1 sequence: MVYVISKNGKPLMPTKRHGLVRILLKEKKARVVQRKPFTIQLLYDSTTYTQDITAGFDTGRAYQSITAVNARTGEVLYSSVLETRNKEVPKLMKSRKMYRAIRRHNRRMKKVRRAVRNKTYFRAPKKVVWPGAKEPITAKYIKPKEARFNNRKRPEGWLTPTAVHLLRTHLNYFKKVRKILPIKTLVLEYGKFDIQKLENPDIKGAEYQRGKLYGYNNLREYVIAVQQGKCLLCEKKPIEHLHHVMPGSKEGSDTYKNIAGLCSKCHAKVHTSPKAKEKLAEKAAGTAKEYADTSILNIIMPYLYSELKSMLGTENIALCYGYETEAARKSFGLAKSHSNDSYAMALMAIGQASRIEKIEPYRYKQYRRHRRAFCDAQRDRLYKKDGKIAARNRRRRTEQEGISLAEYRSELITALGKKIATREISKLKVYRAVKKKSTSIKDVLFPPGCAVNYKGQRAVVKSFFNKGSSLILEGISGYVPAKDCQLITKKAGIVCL
Assay: cell_activity
Conditions: PAM TTAAA; HEK293T

GAGCCUGGUCCAUGGAGAGUGUCAACUACCCCCGUCUAAAGACGGAGGCAUGAGGUUUCGUAACCAAGUGUUGUACCUGCGGGUACAGUAGUUGAACAGGCGGCGAUGCGGCUGGGCACUCCAGGAUGCCACUCCCAGUCCCGGACACUGCCGACGAGCCGCAUCAAGCCGGGGGAGACCAACCGGCUAACGAUAGCCGAGCAAUUACCUAAAAAGAGGUGCAAAGGAAAUGGUAU / GAGCCTGGTCCATGGAGAGT / ACTCTCCATGGACCAGGCTC [Nuclease M VEGFA-T5 guide ; Nuclease M VEGFA-T5 target]
binding signal (fold vs Nuclease M): 1.65
